Data from PMC11909135, “Raptin, a sleep-induced hypothalamic hormone, suppresses appetite and obesity” (Cell Research, 2025).

Target: glutamate metabotropic receptor 3 (GRM3), endogenous (mouse (endogenous in GT1-7 neurons and …, UniProt Q9QYS2 23-879))
Assay: cell-based or functional assay

glutamate metabotropic receptor 3 (GRM3), endogenous (mouse, sequence (Q9QYS2 23-879): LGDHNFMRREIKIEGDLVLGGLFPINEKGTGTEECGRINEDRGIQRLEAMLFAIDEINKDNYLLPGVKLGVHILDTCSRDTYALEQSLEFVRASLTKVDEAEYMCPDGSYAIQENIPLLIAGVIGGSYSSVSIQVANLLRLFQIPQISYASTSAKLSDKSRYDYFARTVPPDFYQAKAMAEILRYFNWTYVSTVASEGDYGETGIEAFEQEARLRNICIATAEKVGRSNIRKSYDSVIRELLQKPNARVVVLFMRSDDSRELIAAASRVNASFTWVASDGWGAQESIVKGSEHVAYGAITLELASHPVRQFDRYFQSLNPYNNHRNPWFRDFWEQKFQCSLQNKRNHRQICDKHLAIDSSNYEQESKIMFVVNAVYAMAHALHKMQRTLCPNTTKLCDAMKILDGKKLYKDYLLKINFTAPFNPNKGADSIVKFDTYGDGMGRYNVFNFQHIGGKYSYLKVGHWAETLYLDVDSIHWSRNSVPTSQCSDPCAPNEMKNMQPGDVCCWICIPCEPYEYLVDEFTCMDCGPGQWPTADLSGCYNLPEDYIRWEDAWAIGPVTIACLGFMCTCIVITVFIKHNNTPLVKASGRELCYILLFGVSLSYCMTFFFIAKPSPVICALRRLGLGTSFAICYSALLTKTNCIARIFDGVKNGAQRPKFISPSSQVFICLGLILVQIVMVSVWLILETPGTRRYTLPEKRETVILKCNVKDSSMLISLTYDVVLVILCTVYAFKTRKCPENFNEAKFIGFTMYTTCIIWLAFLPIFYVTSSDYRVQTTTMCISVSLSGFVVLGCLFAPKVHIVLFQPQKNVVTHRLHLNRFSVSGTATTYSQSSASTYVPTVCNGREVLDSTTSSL

B1: recombinant mouse Raptin protein with a His-tag (ligand)
chain: AEELHYPQGEHRADYDREALLGVQEDVDEYVKLGHEEQQRRLQSIIKKIDSDSDGFLTENELSQWIQMSFKHYAMQEAKQQFVEYDKNSDGAVTWDEYNIQMYDRVIDFDENTALDDTEEGSFRQLHLKDKKRFEKANQDSGPGLSLEEFIAFEHPEEVDYMTEFVIQEALEEHDKNGDGFVSLEEFLGDYRRDPTANEDPEWILVEKDRFVNDYDKDNDGR
- p-AKT accumulation in GT1-7 cells expressing GRM3 (EC50 of Raptin): 0.31 ng/mL
